Earlier results as cited in publication PMC7689933.

Target: His15 (UniProt position 33, AAMKRHGLDNY)
Test: NMR
Conditions: not stated (presumably native, ligand-free lysozyme)

Lysozyme C (hen egg white lysozyme) (Gallus gallus)
pKa: 5.35 ± 0.07
